Reference: patent publication US20230078330A1, “HUMAN ANTI-DENGUE ANTIBODIES AND METHODS OF USE THEREFOR” (published 2023)

Columns and labels:
[1] = target: DENV3 envelope (E) glycoprotein, strain Phillippines/16562/1964 (Dengue virus serotype 3); experiment: live-virus capture ELISA
[2] = target: DENV3 envelope (E) glycoprotein, wildtype DENV3 (strain not named at the place) (Dengue virus serotype 3)
[3] = target: DENV1 envelope (E) glycoprotein, strain Nauru/West Pac/1974 (Dengue virus serotype 1, UniProt P17763); experiment: cell-based or functional assay

Binder	EC50 [1] [µg/mL]	FRNT EC50, Vero-81 [2] [µg/mL]	FRNT EC50, Vero-81 (WUSTL) [3] [µg/mL]
DENV-419 (antibody, V domains shown) VH: EMQLQESGPRLVKPSQTLSLTCTVSGGSTSSGGYYWSWFRQYPEKGLEWIGYIFSSVTTYYNPPLKSRVTISVDTSKNQFSLKLSSVTAADTAVYYCARSLHYYQSSGFLYWGRGIPVTVSA VL: EIVLTQSPATLSLSPGDRATLSCRASQTVGDSLAWYQQKPGQAPRLLIYDVSNRATGIPARFSGSGSGTDFTLTISSLEPEDFAVYYCQQRASFVTFGRGTKVDIK	0.0444	< 0.035	–
DENV-144 (antibody, V domains shown) VH: QVQLQESGPGLVKPSETLSLTCTVSGASISSYSWSWIRQPAGRGLEWLGRIYPSGNTNYSPSLKSRLTMSLDTSKNQFSMKLTSVSAADTAVYYCARDREQWPLYYGMDVWGQGTLVTVSS VL: EIVLTQSPAILSLSPGDRATLSCRASQSVFTYLAWYQHKPGQAPRLLIYDASNRASGIPARFSGSGSGTDFTLTISSLEPEDFAVYYCQQRTKWPLAFGGGTKVEIK	–	–	0.329
